From publication PMC4067148 (Biochemistry, 2014) come the findings set out here.

Data set [1] concerns the molecule itself. As to the kind of experiment: native gel or EMSA. (In EMSA bound probe runs differently from free probe, usually more slowly.)
Data set [2] deals with the molecule itself. Briefly: native gel or EMSA. The source holds these as a separate data set.

Positions count from the first letter of the chain named. Names may count otherwise.

B1: wild-type AcrB (natural protein, Escherichia coli)
chain: MPNFFIDRPIFAWVIAIIIMLAGGLAILKLPVAQYPTIAPPAVTISASYPGADAKTVQDTVTQVIEQNMNGIDNLMYMSSNSDSTGTVQITLTFESGTDADIAQVQVQNKLQLAMPLLPQEVQQQGVSVEKSSSSFLMVVGVINTDGTMTQEDISDYVAANMKDAISRTSGVGDVQLFGSQYAMRIWMNPNELNKFQLTPVDVITAIKAQNAQVAAGQLGGTPPVKGQQLNASIIAQTRLTSTEEFGKILLKVNQDGSRVLLRDVAKIELGGENYDIIAEFNGQPASGLGIKLATGANALDTAAAIRAELAKMEPFFPSGLKIVYPYDTTPFVKISIHEVVKTLVEAIILVFLVMYLFLQNFRATLIPTIAVPVVLLGTFAVLAAFGFSINTLTMFGMVLAIGLLVDDAIVVVENVERVMAEEGLPPKEATRKSMGQIQGALVGIAMVLSAVFVPMAFFGGSTGAIYRQFSITIVSAMALSVLVALILTPALCATMLKPIAKGDHGEGKKGFFGWFNRMFEKSTHHYTDSVGGILRSTGRYLVLYLIIVVGMAYLFVRLPSSFLPDEDQGVFMTMVQLPAGATQERTQKVLNEVTHYYLTKEKNNVESVFAVNGFGFAGRGQNTGIAFVSLKDWADRPGEENKVEAITMRATRAFSQIKDAMVFAFNLPAIVELGTATGFDFELIDQAGLGHEKLTQARNQLLAEAAKHPDMLTSVRPNGLEDTPQFKIDIDQEKAQALGVSINDINTTLGAAWGGSYVNDFIDRGRVKKVYVMSEAKYRMLPDDIGDWYVRAADGQMVPFSAFSSSRWEYGSPRLERYNGLPSMEILGQAAPGKSTGEAMELMEQLASKLPTGVGYDWTGMSYQERLSGNQAPSLYAISLIVVFLCLAALYESWSIPFSVMLVVPLGVIGALLAATFRGLTNDVYFQVGLLTTIGLSAKNAILIVEFAKDLMDKEGKGLIEATLDAVRMRLRPILMTSLAFILGVMPLVISTGAGSGAQNAVGTGVMGGMVTATVLAIFFVPVFFVVVRRRFSRKNEDIEHSHTVDHH
With B1, the “KX (trimer association constant, mole fraction)” value in data set [1] is 1.6e+09.

B2: AcrB_(L886G/E893G) (natural protein, Escherichia coli)
chain: B1 chain with L886G, E893G
With B2, in data set [2], the “stoichiometry N” value was 3. In data set [1], the “KX (trimer association constant, mole fraction)” value amounted to 1e+07.

B3: AcrB_(W895G) (natural protein, Escherichia coli)
chain: B1 chain with W895G
For B3, the “stoichiometry N” value in data set [2] turned out to be 3. The “KX (trimer association constant, mole fraction)” value in data set [1] is 2.2e+07.

B4: AcrB_(L886G/E893G/W895G) (natural protein, Escherichia coli)
chain: B1 chain with L886G, E893G, W895G
For the protein B4, the “stoichiometry N” value in data set [2] came to 3. For the same protein, the “KX (trimer association constant, mole fraction)” value in data set [1] is 1e+07.

B5: AcrB_(E893G) (natural protein, Escherichia coli)
chain: B1 chain with E893G
As to B5, the “stoichiometry N” value in data set [2] worked out at 3. Further, in data set [1], the “KX (trimer association constant, mole fraction)” value came out at 3.2e+09.

B6: AcrB_(L886G) (natural protein, Escherichia coli)
chain: B1 chain with L886G
Regarding B6, in data set [2], the “stoichiometry N” value turned out to be 3. Further, the “KX (trimer association constant, mole fraction)” value in data set [1] amounted to 1.4e+07.

B7: AcrB_(E893G/W895G) (natural protein, Escherichia coli)
chain: B1 chain with E893G, W895G
Regarding B7, the “stoichiometry N” value in data set [2] is 3. The “KX (trimer association constant, mole fraction)” value in data set [1] came out at 8.6e+06.

By stoichiometry N is commonly meant the number of molecules, sites or subunits per partner or assembly.
